Key:
LS-411N = test: Drug combination screen (ATPlite, Synergy Score), LS-411N; assay type: cell-based, human; settings: compound in combination with IgG1-hDR5-01-G56T-E430G + IgG1-hDR5-05-E430G; LS-411N; 72 hour ATPlite, 6x6 matrix
SW480 = test: Drug combination screen (ATPlite, Synergy Score), SW480; assay type: cell-based, human; settings: compound in combination with IgG1-hDR5-01-G56T-E430G + IgG1-hDR5-05-E430G; SW480; 72 hour ATPlite, 6x6 matrix
DLD-1 = test: Drug combination screen (ATPlite, Synergy Score), DLD-1; settings: compound in combination with IgG1-hDR5-01-G56T-E430G + IgG1-hDR5-05-E430G; DLD-1; 120 hour ATPlite, 6x6 matrix
HCT 116 = test: Drug combination screen (ATPlite, Synergy Score), HCT 116; settings: compound in combination with IgG1-hDR5-01-G56T-E430G + IgG1-hDR5-05-E430G; HCT 116; 120 hour ATPlite, 6x6 matrix
SNU-C2B = test: Drug combination screen (ATPlite, Synergy Score), SNU-C2B; settings: compound in combination with IgG1-hDR5-01-G56T-E430G + IgG1-hDR5-05-E430G; SNU-C2B; 72 hour ATPlite, 6x6 matrix

B1: TNF-related apoptosis-inducing ligand (protein, UniProt P50591 1-281, looked up)
Tumor necrosis factor ligand …: MAMMEVQGGPSLGQTCVLIVIFTVLLQSLCVAVTYVYFTNELKQMQDKYSKSGIACFLKEDDSYWDPNDEESMNSPCWQVKWQLRQLVRKMILRTSEETISTVQEKQQNISPLVRERGPQRVAAHITGTRGRSNTLSSPNSKNEKALGRKINSWESSRSGHSFLSNLHLRNGELVIHEKGFYYIYSQTYFRFQEEIKENTKNDKQMVQYIYKYTSYPDPILLMKSARNSCWSKDAEYGLYSIYQGGIFELKENDRIFVSVTNEHLIDMDHEASFFGAFLVG
Synergy Score LS-411N (LS-411N): 0.1
Synergy Score SW480 (SW480): 0.9
Synergy Score DLD-1 (DLD-1): 0
Synergy Score HCT-116 (HCT 116): 0
Synergy Score SNU-C2B (SNU-C2B): 0.2
